Several values for one entry are separate records, joined by “and”; a condition that tells them apart may be missing. Equal entries are not always repeated. Where two headings read alike, the source gives them in different places.
Tests used:
Assay in all cases: native gel or EMSA
GluA1 = GluA1 (UniProt P19490)
[1] = molecular target: GluA1 Lurcher mutant (A636T) (UniProt P19490)
[2] = molecular target: GluA1 Lurcher mutant (A636T) (UniProt P19490); remark: listed apart in the source
[3] = molecular target: GluA1ΔNTD Lurcher mutant (A636T)
HA-GluA1 = HA-GluA1 (UniProt P19490)
HA-GluA1ΔNTD = molecular target: HA-GluA1ΔNTD
HA-GluA1ΔNTD-GFP×3 = molecular target: HA-GluA1ΔNTD-GFP×3
[4] = molecular target: neuronal AMPA receptor complex detected using the anti-GluA2/3 antibody (mouse (endogenous in cerebellar granule cells)) (UniProt P23819)
UniProt P23819, sequence (P23819 25-883, one chain of several): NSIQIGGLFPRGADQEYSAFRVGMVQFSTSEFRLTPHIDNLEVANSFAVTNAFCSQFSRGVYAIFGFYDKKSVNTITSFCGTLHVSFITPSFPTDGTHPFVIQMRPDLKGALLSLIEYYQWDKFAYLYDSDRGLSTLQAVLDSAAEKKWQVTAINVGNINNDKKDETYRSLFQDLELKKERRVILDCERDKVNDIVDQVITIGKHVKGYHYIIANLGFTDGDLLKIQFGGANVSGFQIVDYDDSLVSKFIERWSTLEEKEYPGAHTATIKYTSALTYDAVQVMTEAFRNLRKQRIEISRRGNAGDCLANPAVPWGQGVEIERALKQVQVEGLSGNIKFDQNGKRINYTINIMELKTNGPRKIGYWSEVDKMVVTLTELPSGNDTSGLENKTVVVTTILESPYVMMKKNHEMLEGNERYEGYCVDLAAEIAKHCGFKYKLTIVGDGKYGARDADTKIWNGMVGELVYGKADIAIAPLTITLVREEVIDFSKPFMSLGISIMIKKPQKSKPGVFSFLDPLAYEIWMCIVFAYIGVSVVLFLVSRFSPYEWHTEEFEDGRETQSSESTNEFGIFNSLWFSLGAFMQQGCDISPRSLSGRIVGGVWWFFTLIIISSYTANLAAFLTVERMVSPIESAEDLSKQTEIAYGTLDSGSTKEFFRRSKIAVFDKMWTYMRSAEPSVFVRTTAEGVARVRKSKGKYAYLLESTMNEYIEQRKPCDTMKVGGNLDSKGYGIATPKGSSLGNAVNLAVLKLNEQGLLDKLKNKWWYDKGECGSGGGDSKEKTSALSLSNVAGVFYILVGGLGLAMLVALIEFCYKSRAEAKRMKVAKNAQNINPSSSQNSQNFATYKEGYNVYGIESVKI

With “GluA1 (from UniProt P19490 19-907) (receptor)” the stoichiometry N (subunits in the oligomer) (GluA1) was 4 and 2.

Molecule “GluA1 Lurcher mutant (A636T) (from UniProt P19490 19-907) (receptor)” has a stoichiometry N (subunits in the oligomer) [1] of 2 and a stoichiometry N (subunits in the oligomer) [2] of 4.

For “GluA1ΔNTD Lurcher mutant (A636T) (domain or fragment)”, the stoichiometry N (subunits in the oligomer) [3] was 4.

For “HA-GluA1 (from UniProt P19490 19-907) (receptor)”, the stoichiometry N (subunits in the oligomer) (HA-GluA1) was 4.

HA-GluA1ΔNTD (domain or fragment) showed a stoichiometry N (subunits in the oligomer) (HA-GluA1ΔNTD) of 4.

HA-GluA1ΔNTD-GFP×3 (domain or fragment) was tested, and the stoichiometry N (subunits in the oligomer) (HA-GluA1ΔNTD-GFP×3) was 4.

B1: stargazin (endogenous, cerebellar granule cells) (natural protein)
chain: MGLFDRGVQMLLTTVGAFAAFSLMTIAVGTDYWLYSRGVCKTKSVSENETSKKNEEVMTHSGLWRTCCLEGNFKGLCKQIDHFPEDADYEADTAEYFLRAVRASSIFPILSVILLFMGGLCIAASEFYKTRHNIILSAGIFFVSAGLSNIIGIIVYISANAGDPSKSDSKKNSYSYGWSFYFGALSFIIAEMVGVLAVHMFIDRHKQLRATARATDYLQASAITRIPSYRYRYQRRSRSSSRSTEPSHSRDASPVGVKGFNTLPSTEISMYTLSRDPLKAATTPTATYNSDRDNSFLQVHNCIQKDSKDSLHANTANRRTTPV
B1 gave a stoichiometry N (stargazin per AMPA receptor tetramer) [4] of 1.
